Test results reported in US20050176123A1, “Protease inhibitor” (Morinaga Milk Industry Co., Ltd., priority 2002, published 2005).

Assays:
Assay in all cases: cysteine protease inhibitory activity (Z-Phe-Arg-MCA fluorescence, method of Barrett et al.)
Assay type in all cases: biochemical
[1] = target: T1, cathepsin B (Homo sapiens, UniProt P07858)
T1 construct: purchased Wako Pure Chemical Industries, Ltd
Method: (§1) Inhibitory activities against cysteine proteases including papain, cathepsin B, cathepsin L and cathepsin S (these proteases are available from Wako Pure Chemical Industries, Ltd.) were determined using commercially available bovine lactoferrin (manufactured by Morinaga Milk Industry Co., Ltd.) as a test sample. The inhibitory activity was measured with reference to the method by Barrett et al. (“Methods in Enzymology,” Vol. 80, p 535-561, 1981) as described below. Namely, Z-Phe-Arg-MCA (final concentration of […]: manufactured by Peptide Institute, Inc.) was added as a substrate to 0.1 M acetic acid buffer solution (pH 5.5) in which sample was dissolved at each concentration. Then, cysteine protease (a protease selected from papain, cathepsin B, cathepsin L and cathepsin S in the present test: manufactured by Wako Pure Chemical Industries, Ltd.) solution (final concentration: 15 units/ml) was added, the whole solution was mixed and the reaction was carried out at 37° C. for 10 minutes. Subsequently, fluorescence intensity (excitation wavelength: 370 nm, emission wavelength: 460 nm) of AMC (7-Amino-4-Methyl-Coumarin) released from the digested substrate was measured with a fluorescence spectrometer (manufactured by Hitachi, Ltd.).

[2] = target: T2, cathepsin L (Homo sapiens, UniProt P07711)
T2 construct: purchased Wako Pure Chemical Industries, Ltd
T2 sequence (P07711 114-333, species assumed): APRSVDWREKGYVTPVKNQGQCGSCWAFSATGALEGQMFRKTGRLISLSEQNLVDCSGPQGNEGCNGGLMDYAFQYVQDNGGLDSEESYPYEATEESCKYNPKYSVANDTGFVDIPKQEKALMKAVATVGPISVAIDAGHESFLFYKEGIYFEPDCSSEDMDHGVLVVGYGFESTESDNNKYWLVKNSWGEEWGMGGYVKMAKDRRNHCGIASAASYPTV
Method: as §1

[3] = target: T3, papain (Carica papaya, UniProt P00784); conditions: pH 5.5, 37° C., 10 minutes
T3 construct: purchased Wako Pure Chemical Industries, Ltd
T3 sequence (P00784 134-345): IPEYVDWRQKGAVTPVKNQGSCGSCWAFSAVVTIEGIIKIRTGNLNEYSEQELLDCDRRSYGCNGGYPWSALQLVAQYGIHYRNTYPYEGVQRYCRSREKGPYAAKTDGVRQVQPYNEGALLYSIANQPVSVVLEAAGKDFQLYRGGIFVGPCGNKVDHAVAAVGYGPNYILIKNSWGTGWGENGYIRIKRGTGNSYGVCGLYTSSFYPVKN
Method: as §1

[4] = inhibitor 10^−3 M, pH 5.5, 37° C., 10 minutes

bovine lactoferrin peptide Y676-K692: peptide having amino acid numbers 676-692 of SEQ ID No. 2 (bovine lactoferrin), chemically synthesized (YEEYLGTEYVTAIANLK; sig_peptide (1)...(19) Lactoferrin; listed as Bos taurus)
cysteine protease-inhibitory activity compared with human lactoferrin peptide Y679-K695 ([1]; similar test to Test Example 5): almost equal to the human lactoferrin peptide Y679-K695 | cysteine protease-inhibitory activity compared with human lactoferrin peptide Y679-K695 ([2]; similar test to Test Example 5): almost equal to the human lactoferrin peptide Y679-K695

human lactoferrin peptide Y679-K695: peptide having amino acid numbers 679-695 of SEQ ID No. 1 (human lactoferrin), chemically synthesized (YEKYLGPQYVAGITNLK; sig_peptide (1)...(19) Lactoferrin; listed as Homo Sapiens)
inhibition of cysteine protease activity [1, 4]: ~60% | inhibition of cysteine protease activity [2, 4]: almost completely inhibited | inhibition rate at each concentration (%) ([2]; inhibitor 10^−4M, pH 5.5, 37° C., 10 minutes): more than 50% | inhibition of cysteine protease activity ([3]; inhibitor 10^−3 M): almost completely inhibited | inhibition rate at each concentration (%) ([3]; inhibitor 10^−4M): more than 50%
